Measurements reported in patent US20070232789A1.

Columns and labels:
[1] = target: low-density lipoprotein receptor-related protein (LRP), purified (human) (UniProt Q07954); experiment: homologous displacement of ^125I-fVIII (1 nM) by unlabeled fVIII on LRP-coated wells, LIGAND fit
[2] = target: low-density lipoprotein receptor-related protein (LRP), purified (human) (UniProt Q07954); experiment: homologous displacement on LRP-coated wells
[3] = target: low-density lipoprotein receptor-related protein (LRP), purified (human) (UniProt Q07954); experiment: homologous ligand displacement: 125I-fVIII (1 nM) on LRP-coated microtiter wells, competitor unlabeled fVIII
[4] = target: A1/A3-C1-C2 heterodimer of factor VIII, plasma-derived (human) (UniProt P00451); experiment: cell-based or functional assay
Sequence of A1/A3-C1-C2 heterodimer of factor VIII, plasma-derived (human) (P00451 20-391, chain 1 of 2): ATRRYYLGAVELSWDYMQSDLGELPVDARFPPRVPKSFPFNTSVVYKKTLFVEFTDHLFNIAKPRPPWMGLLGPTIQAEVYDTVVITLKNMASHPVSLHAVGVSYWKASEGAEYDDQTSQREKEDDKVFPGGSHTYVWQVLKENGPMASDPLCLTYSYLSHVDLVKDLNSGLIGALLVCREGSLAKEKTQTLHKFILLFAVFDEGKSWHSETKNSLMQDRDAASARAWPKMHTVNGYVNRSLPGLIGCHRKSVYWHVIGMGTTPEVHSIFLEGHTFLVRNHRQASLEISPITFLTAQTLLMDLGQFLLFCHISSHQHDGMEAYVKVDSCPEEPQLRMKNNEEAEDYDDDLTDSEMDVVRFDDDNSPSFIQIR
Sequence of A1/A3-C1-C2 heterodimer of factor VIII, plasma-derived (human) (P00451 1709-2351, chain 2 of 2): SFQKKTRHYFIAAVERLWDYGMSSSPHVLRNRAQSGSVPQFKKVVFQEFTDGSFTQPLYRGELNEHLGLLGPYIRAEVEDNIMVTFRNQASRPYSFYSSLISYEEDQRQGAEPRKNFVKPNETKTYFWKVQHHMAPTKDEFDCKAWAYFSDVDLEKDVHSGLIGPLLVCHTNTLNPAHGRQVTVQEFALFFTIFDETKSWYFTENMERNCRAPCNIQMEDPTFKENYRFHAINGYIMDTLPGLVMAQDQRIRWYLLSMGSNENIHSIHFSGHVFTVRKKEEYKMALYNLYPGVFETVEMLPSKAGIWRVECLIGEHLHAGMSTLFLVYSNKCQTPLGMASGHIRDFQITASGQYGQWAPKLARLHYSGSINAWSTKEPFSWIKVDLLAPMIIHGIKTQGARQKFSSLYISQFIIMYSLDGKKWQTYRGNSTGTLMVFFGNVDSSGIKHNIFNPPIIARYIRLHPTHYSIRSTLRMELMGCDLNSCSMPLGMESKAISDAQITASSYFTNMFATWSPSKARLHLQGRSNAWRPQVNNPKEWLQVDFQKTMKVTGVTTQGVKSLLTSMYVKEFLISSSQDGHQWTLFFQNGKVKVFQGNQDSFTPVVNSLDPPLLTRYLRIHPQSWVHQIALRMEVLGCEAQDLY

[5] = target: low-density lipoprotein receptor-related protein (LRP), purified (human) (UniProt Q07954); experiment: SPR, BIAcore 3000, one-site model, KD = koff/kon
[6] = target: low-density lipoprotein receptor-related protein (LRP), purified (human) (UniProt Q07954); experiment: SPR, BIAcore 3000

Substance | Kd [1] | percent of binding competed by an excess of unlabeled fVIII [2] | IC50 (read off the curve) [3] | Activity of reconstituted FVIIIa (% of wt activity) (% of wt activity) [4] | Kd [5] | fold decrease of affinity against wt-A2 [6]
factor VIII purified from therapeutic concentrates (Method M, American Red Cross), P00451 20-1667; P00451 1668-2351 | 116 nM | > 90% | 100 nM |  |  | 
recombinant A2 mutant #2 (Lys-377 to Ala) (from UniProt P00451 392-759) |  |  |  | 365 | 18 nM | 
recombinant A2 mutant #3 (His-378 to Ala) (from UniProt P00451 392-759) |  |  |  | 417 | 19 nM | 
recombinant A2 mutant #4 (Lys-380 to Ala) (from UniProt P00451 392-759) |  |  |  | 291 | 47 nM | 
recombinant A2 mutant #5 (Lys-466 to Ala) (from UniProt P00451 392-759) |  |  |  | 130 | 600 nM | 28 fold
recombinant A2 mutant #6 (Arg-471 to Ala) (from UniProt P00451 392-759) |  |  |  | 34.6 | 400 nM | 19 fold
recombinant A2 mutant #7 (Arg-484 to Ala) (from UniProt P00451 392-759) |  |  |  | 64.9 | 320 nM | 15 fold
